Values of other authors, collected in article PMC6699087.

Molecular target: Hsp90 (Homo sapiens) (UniProt P08238)
Chain of UniProt P08238 (P08238 2-724): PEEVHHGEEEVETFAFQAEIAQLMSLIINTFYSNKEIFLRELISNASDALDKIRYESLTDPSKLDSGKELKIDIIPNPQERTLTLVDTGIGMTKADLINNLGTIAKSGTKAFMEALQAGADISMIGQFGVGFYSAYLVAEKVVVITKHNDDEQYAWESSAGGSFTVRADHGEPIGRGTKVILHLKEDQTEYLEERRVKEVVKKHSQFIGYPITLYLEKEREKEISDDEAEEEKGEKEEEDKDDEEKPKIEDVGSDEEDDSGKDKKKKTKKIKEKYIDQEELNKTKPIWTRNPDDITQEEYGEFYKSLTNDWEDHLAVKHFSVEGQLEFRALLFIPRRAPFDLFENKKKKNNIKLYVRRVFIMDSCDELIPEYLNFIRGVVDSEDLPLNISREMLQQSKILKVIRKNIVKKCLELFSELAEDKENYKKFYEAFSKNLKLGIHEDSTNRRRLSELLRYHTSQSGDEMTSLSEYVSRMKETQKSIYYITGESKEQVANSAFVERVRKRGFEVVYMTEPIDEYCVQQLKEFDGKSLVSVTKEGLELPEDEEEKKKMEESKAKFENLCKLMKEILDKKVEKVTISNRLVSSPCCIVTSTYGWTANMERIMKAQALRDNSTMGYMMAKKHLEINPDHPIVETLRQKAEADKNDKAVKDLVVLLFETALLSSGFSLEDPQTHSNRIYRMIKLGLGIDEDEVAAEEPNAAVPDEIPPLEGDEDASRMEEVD

Kd: 500 nM
Substance: Aha1 (from UniProt O95433)
